These results are taken from article PMC6764996.

Assay [1] addresses full-length human DNA polymerase θ (Polθ) (human) (UniProt O75417). As to the kind of experiment: negative staining electron microscopy (single particles); 200 nM protein pre-incubated with 2 μM 26 nt ssDNA; 25 mM Tris-HCl pH 8.8, 1 mM DTT, 10 mM MgCl2, 2 mM ATP; 37 °C, 30 min; 2% uranyl acetate.
Assay [2] has the same target. As to the kind of experiment: scanning force microscopy (volume measurements); 10 nM protein with 20 nM 26 nt ssDNA; 25 mM Tris-HCl pH 8.8, 30 mM NaCl, 10 mM MgCl2, 2 mM ATP, 0.01% NP-40, 1 mM DTT; 37 °C, 30 min; deposited on mica; volumes normalised to the monomer's volume.
For assay [3] the target is unchanged. As to the kind of experiment: negative staining electron microscopy (single particles); 200 nM protein without ssDNA; 25 mM Tris-HCl pH 8.8, 1 mM DTT, 10 mM MgCl2, 2 mM ATP; 37 °C, 30 min; applied to lacey carbon grids, 2% uranyl acetate.

Substance “full-length human DNA polymerase θ (Polθ), O75417 1-2590” returned a fold increase in large > 1000 Å multimers with ssDNA against without ssDNA in assay [1] of 9 fold. The same substance gave a percent of Polθ as tetramers or larger (with ssDNA) in assay [2] of 62%. In assay [3], this substance displayed a percent of Polθ as large (> 1000 Å) multimers (without ssDNA) of 3%.
